Data as given in US20090305339A1, “Polypeptides With Laccase Activity” (VIALACTIA BIOSCIENCES (NZ) LIMITED, priority 2006, published 2009).

Tests used:
[1] = Laccase activity, violuric acid as substrate; assay type: biochemical
[2] = Oxidative reactions of various compounds (substrate preference, overall kinetics, pH range); assay type: biochemical; settings: order of oxidized substrates
Experimental: Laccase activity was determined spectrophotometrically in a thermostated spectrophotometer (Perkin-Elmer) at 40° C. in 100 mM sodium citrate buffer, pH 4.5 (1 ml). The standard assay was performed at 530 nm, using SGZ as the oxidation substrate (ε530=64,000 M^−1cm^−1). The reaction was started by adding SGZ, from a stock solution in methanol, to a final concentration of 20 μM. […] Oxidation of phenol red (75 μM) was determined by the decrease in absorbance at 432 nm. The activity:pH and activity:temperature relationships were determined by incubating the enzyme:substrate mixtures at different pH values and constant temperature (40° C.), and at different temperatures (15-80° C.) and constant pH (4.5), respectively. Catalytic constants were derived by fitting the experimental data onto the Michaelis-Menten model. Control measurements without enzyme were carried out to correct for possible chemical oxidation of the substrates.

[3] = Electrochemical analysis of immobilized laccase in absence of substrate; settings: for potential at which electro-reduction of oxygen begins: no substrate
Excerpt: Electrochemical information on electrodes modified with RL5 laccase in absence of substrate was also obtained (FIGS. 3C,D). Again, we found some differences when the electrode material was gold or glassy carbon. Thus, the electro-reduction of oxygen begins in +250 mV when the electrode was gold (FIG. 3C), while it began at +500 mv when it was glassy carbon (FIG. 3D). We found additional information on the glassy carbon electrode compared with the gold electrode. Thus, when removing the oxygen from solution, the T1 copper site oxidization potential of 740 mV vs. NHE was registered. In addition, when a reactivation with oxygen was performed, the three oxidation potential peaks were registred: T1 of 745 mV vs. NHE was the highest; T3 site of 500 mV vs. NHE had two copper ions, so it is the one with a higher area; T2 site had 400 mV vs. NHE. The redox potential of T1 was registered to be in the range of fungal laccases (480-785 mV) (Solomon et al., 1996; Klonowska etal., 2002).
The electrochemical measurements have been performed with BAS CV-50W voltammetric analyzer. For gold surface experiments, a gold BAS disc electrode has been used. The electrode was cleaned according to the following procedure: the electrode was firstly immersed in “piranha” solution, containing 1 part of hydrogen peroxide 33% v and 3 parts of sulphuric acid 98%, during 5 minutes, after which the electrode was rinsed thoroughly with milliQ water, and polished with Buehler® micropolish gamma alumina #3, 0.05 micron size, during 5 minutes, on a polishing cloth, further immersed into a milliQ water solution and exposed to ultrasounds for 15 minutes. Then, the electrode was cleaned with sulphuric acid oxidization cyclic voltammetry for 30 minutes. The electrode was rinsed three times with milliQ water and polished again for another 5 minutes with the same alumina powder. After the subsequent sonication for 15 minutes, the electrode was finally inmersed into a reductive 0.5 M NaOH solution for 30 minutes and rinsed with milliQ water. The laccase enzyme was immobilized by dropping […] of the enzyme solution at a concentration of 5 mg/ml on the gold surface facing upward and covered to avoid evaporation. After 90 minutes, the second drop was added. After 180 minutes from the first addition, the laccase-modified gold electrode was measured in 100 mM phosphate buffer (pH 6.0) in the presence of oxygen. For measurements under anaerobic conditions, N2 was “bubbled” for 15 minutes into the electrochemical cell. The same procedure was repeated for measuring in presence of 2,6-dimethoxyphenol, used as a test substrate. The immobilization on the carbon electrode was performed on a BAS glassy carbon electrode. The electrode was polished on a graphite-polishing cloth for 5 minutes, until mirror-like surface was achieved. The electrode was rinsed thoroughly with water and, facing upwards, 20 μl of the laccase solution (5 mg/ml) were dropped on the classy carbon surface. The electrode was covered and let to immobilize for 20 minutes. All electrochemical measurements performed for the gold electrode are repeated for this electrode.

[4] = Laccase activity, 1-HBT as substrate; assay type: biochemical
[5] = Decolorization of Poly R-478; assay type: biochemical; settings: Poly R-478 0.025%, pH 4.5, room temperature, 0.2 units enzyme, 3500 min
Experimental: Decolorization of Poly-R 478 (0.025 w/v) in the presence or absence of HOBt (1-Hydroxybenzotriazole) (0.9 mM) was determined spectrophotometrically (520 nm) at room temperature in 100 mM sodium phosphate buffer pH 4.5.

[6] = Electrochemical analysis of immobilized laccase in the presence of DMP; settings: for electrochemical activity (current): DMP
Excerpt: RL5 was immobilized on BAS glassy carbon electrodes (FIGS. 3B,D) or on gold electrodes (FIGS. 3A,C). Both materials provide different enzyme orientations:
(i) the carbon electrode presents hydroxyl groups on the surface, providing a laccase substrate-like structure, which makes the enzyme to immobilize preferably with the active site facing the electrode surface; and
(ii) gold provides high hydrophobic surface that avoids the contact between the high-hydrophilic density amino acid domain of the enzyme and the electrode, being the hydrophobic domains which preferably orient towards the gold surface.
Some differences in the electrochemical measurements were observed due to the different orientation of the enzyme on the electrode in the presence of substrate (DMP) (FIGS. 3A,B). Thus, when RL5 laccase was immobilized on gold (FIG. 3A), the activity in the presence of oxygen was of 0.38 microamperes (dashed line), whereas in the absence of oxygen it was of 0.69 microamperes (dotted line). Most likely, the enzyme is using approximately half of the electrons for the reduction of the substrate and the other half from the oxygen in the solution; however, in absence of oxygen, all the electrons are used from the electrode, giving a higher measurement value. When using the carbon electrode (FIG. 3B), the enzyme orients in such a way that the measure, in the presence of oxygen, was 2.8 microamperes (dashed line). This could be explained by the fact that 93% of the electrons are used from the electrode, either because of different enzyme orientations, or because the immobilization on carbon kept higher amount (approximately 7 times) of laccase active. In the carbon electrode the T2 copper oxidization potential site, +500 vs. normal hydrogen electrode (NHE) was determined.
The electrochemical measurements have been performed with BAS CV-50W voltammetric analyzer. For gold surface experiments, a gold BAS disc electrode has been used. The electrode was cleaned according to the following procedure: the electrode was firstly immersed in “piranha” solution, containing 1 part of hydrogen peroxide 33% v and 3 parts of sulphuric acid 98%, during 5 minutes, after which the electrode was rinsed thoroughly with milliQ water, and polished with Buehler® micropolish gamma alumina #3, 0.05 micron size, during 5 minutes, on a polishing cloth, further immersed into a milliQ water solution and exposed to ultrasounds for 15 minutes. Then, the electrode was cleaned with sulphuric acid oxidization cyclic voltammetry for 30 minutes. […] After 180 minutes from the first addition, the laccase-modified gold electrode was measured in 100 mM phosphate buffer (pH 6.0) in the presence of oxygen. […]

[7] = Oxidation of benzo[a]pyrene (HPLC); assay type: biochemical; settings: 50 μM benzo[a]pyrene, HOBt, pH 4.5, overnight, room temperature
Excerpt: Procedures for cloning, expression and purification of laccase are described in the reference: Beloqui, A., et al. (2006), which is made part of the disclosure of the present application.
Benzo[a]pyrene was oxidized, however the oxidation products haven't been identified yet.

[8] = glassy carbon, after reactivation with oxygen, vs. NHE

substrate of the laccase [1]: not substrates
substrate of the laccase [4]: not substrates
electrochemical activity (current) ([6]; carbon electrode, presence of oxygen): 2.8 microamperes
electrochemical activity (current) ([6]; gold electrode, absence of oxygen): 0.69 microamperes
electrochemical activity (current) ([6]; gold electrode, presence of oxygen): 0.38 microamperes
B1: RL5: polypeptide with laccase activity from bovine rumen metagenome library, amino acid sequence of FIG. 11 (protein)
chain: MIELEKLDFAKSVEGVEAFSTTRGQVDGRNAYSGVNLCDYVGDDALRVLDARLTLAMQLGVDLDDLVMPRQTHSCRVAVIDERFRALDIDEQEAALEGVDALVTRLQGIVIGVNTADCVPIVLVDSQAGIVAVSHAGWRGTVGRIAKAVVEEMCRQGATVDRIQAAMGPSICQDCFEVGDEVVEAFKKAHFNLNDIVVRNPATGKAHIDLRAANRAVLVAAGVPAANIVESQHCSRCEHTSFFSARRLGINSGRTFTGIYRK
modifications: Description of sequence Amino acid sequence of RL5 laccase 3217 to 2414 frame 1 - 262 amino acids (see Figure 11)
substrate preference [2]: SGZ>DMP>veratryl alcohol>guaiacol>tetramethylbenzidine>4-metoxybenzyl alcohol>2ABTS>phenol red
potential at which electro-reduction of oxygen begins ([3]; glassy carbon electrode): +500 mv
T1 oxidation potential [3, 8]: 745 mV
T2 site oxidation potential [3, 8]: 400 mV
T3 site oxidation potential [3, 8]: 500 mV
T1 copper site oxidization potential ([3]; glassy carbon, oxygen removed from solution, vs. NHE): 740 mV
potential at which electro-reduction of oxygen begins ([3]; gold electrode): +250 mV
Poly R-478 solution oxidized [5]: more than 70%
T2 copper oxidization potential site ([6]; carbon electrode, vs. normal hydrogen electrode (NHE)): +500
oxidation of benzo[a]pyrene [7]: oxidized
